Assay results as given in publication PMC2756588.

B1: unnamed (peptide)
chain: PSTMDFPKLPSFQNS
B2: unnamed (peptide)
chain: VFQFQMPTTPISTKM
B3: unnamed (peptide)
chain: QTMRQAPKRPDADVA
B4: unnamed (peptide)
chain: NSMRPPLLIPAATTK

Tests used:
Assay in all cases: SPOT array
[1] = target: T1, Abp1, P15891; conditions: median of control spots 935
T1 sequence (P15891 535-592, looked up): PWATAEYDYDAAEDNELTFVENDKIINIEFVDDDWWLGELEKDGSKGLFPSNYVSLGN

[2] = target: T2, Bbc1, P47068; conditions: median of control spots 796
T2 sequence (P47068 1-78, looked up): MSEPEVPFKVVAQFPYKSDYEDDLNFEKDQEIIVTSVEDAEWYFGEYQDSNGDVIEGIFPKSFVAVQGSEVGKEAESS

[3] = target: Bem1-1, P29366; conditions: median of control spots 4282
Sequence of Bem1-1, P29366 (P29366 55-141): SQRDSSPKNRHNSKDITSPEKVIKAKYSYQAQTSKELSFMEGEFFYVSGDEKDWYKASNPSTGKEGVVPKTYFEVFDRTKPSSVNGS

[4] = target: Bem1-2, P29366; conditions: median of control spots 4347
Sequence of Bem1-2, P29366 (P29366 139-227): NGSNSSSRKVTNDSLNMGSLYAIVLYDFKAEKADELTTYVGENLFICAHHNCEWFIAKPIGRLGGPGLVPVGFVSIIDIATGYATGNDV

[5] = target: T3, Boi1, P38041; conditions: median of control spots 1162
T3 sequence (P38041 1-86, looked up): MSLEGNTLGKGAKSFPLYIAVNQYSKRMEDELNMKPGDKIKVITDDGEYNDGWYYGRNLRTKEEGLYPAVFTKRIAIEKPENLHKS

[6] = target: T4, Boi2, P39969; conditions: median of control spots 1161
T4 sequence (P39969 32-116, looked up): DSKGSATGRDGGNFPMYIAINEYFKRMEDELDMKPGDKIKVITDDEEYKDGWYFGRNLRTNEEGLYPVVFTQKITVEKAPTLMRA

[7] = target: T5, Bud14, P27637; conditions: median of control spots 956
T5 sequence (P27637 247-328, looked up): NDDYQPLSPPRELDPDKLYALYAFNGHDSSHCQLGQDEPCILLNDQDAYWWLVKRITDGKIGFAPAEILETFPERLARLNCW

[8] = target: T6, Bzz1-1, P38822; conditions: median of control spots 4446
T6 sequence (P38822 478-572, looked up): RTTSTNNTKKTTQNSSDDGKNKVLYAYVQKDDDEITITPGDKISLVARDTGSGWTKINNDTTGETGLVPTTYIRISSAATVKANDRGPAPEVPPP

[9] = target: T7, Bzz1-2, P38822; conditions: median of control spots 4538
T7 sequence (P38822 568-633, looked up): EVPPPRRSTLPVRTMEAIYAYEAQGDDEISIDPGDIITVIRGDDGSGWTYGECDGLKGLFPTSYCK

[10] = target: T8, Cdc25, P04821; conditions: median of control spots 969
T8 sequence (P04821 50-136, looked up): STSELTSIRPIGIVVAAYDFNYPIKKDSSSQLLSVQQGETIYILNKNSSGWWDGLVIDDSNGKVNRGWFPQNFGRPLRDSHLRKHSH

[11] = target: T9, Cyk3, Q07533; conditions: median of control spots 1451
T9 sequence (Q07533 1-83, looked up): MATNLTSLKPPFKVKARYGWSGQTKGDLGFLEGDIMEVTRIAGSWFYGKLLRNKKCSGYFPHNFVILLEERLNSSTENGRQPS

[12] = target: T10, Fus1, P11710; conditions: median of control spots 1200
T10 sequence (P11710 432-512, looked up): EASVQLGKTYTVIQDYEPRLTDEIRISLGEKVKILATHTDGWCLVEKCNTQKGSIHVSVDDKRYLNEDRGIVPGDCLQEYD

[13] = target: GST; conditions: median of control spots 978
[14] = target: T11, Hof1, Q05080; conditions: median of control spots 4086
T11 sequence (Q05080 590-669, looked up): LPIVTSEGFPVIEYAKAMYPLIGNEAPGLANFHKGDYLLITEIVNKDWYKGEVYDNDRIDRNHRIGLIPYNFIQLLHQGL

[15] = target: T12, Hse1, P38753; conditions: median of control spots 1727
T12 sequence (P38753 208-285, looked up): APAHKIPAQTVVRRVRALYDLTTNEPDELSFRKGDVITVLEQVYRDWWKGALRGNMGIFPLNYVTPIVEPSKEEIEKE

[16] = target: T13, Lsb1, P53281; conditions: median of control spots 388
T13 sequence (P53281 45-122, looked up): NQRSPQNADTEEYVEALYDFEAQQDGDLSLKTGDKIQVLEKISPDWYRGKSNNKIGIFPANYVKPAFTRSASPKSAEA

[17] = target: T14, Lsb3, P43603; conditions: median of control spots 406
T14 sequence (P43603 385-451, looked up): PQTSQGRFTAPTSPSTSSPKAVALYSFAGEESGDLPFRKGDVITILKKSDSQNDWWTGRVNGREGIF

[18] = target: T15, Lsb4, P32793; conditions: median of control spots 397
T15 sequence (P32793 402-468, looked up): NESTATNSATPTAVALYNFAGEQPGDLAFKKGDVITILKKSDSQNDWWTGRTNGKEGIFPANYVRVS

[19] = target: Myo3, P36006; conditions: median of control spots 468
[20] = target: T16, Myo5, Q04439; conditions: median of control spots 471
T16 sequence (Q04439 1072-1160, looked up): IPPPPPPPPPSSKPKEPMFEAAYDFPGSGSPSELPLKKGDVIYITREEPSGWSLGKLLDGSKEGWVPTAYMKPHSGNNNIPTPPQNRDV

[21] = target: T17, Nbp2, Q12163; conditions: median of control spots 357
T17 sequence (Q12163 103-180, looked up): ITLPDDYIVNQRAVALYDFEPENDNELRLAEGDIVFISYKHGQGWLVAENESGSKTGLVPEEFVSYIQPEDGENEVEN

[22] = target: T18, Pex13, P80667; conditions: median of control spots 1341
T18 sequence (P80667 295-386, looked up): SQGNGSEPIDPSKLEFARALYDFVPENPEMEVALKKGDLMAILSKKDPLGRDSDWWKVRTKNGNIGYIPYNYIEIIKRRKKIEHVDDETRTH

[23] = target: T19, Pin3, Q06449; conditions: median of control spots 2171
T19 sequence (Q06449 53-122, looked up): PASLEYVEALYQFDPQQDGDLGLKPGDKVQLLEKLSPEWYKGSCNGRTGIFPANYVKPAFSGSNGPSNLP

[24] = target: Rvs167, P39743; conditions: median of control spots 2707
Sequence of Rvs167, P39743 (P39743 419-482): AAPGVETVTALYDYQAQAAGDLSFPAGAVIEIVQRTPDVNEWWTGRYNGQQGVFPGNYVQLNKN

[25] = target: Sho1, P40073; conditions: median of control spots 1148
Sequence of Sho1, P40073 (P40073 287-367): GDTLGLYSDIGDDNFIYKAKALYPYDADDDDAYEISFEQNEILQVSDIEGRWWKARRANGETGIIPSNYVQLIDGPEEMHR

[26] = target: T20, Sla1-2, P32790; conditions: median of control spots 712
T20 sequence (P32790 60-140, looked up): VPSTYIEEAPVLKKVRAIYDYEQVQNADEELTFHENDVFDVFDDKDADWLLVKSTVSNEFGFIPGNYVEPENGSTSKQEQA

[27] = target: T21, Sla1-3, P32790; conditions: median of control spots 5475
T21 sequence (P32790 344-424, looked up): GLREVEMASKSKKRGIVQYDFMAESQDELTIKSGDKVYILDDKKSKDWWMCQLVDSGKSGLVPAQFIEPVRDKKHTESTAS

| Binder | SPOT intensity [1] | SPOT intensity [2] | SPOT intensity [3] | SPOT intensity [4] | SPOT intensity [5] | SPOT intensity [6] | SPOT intensity [7] | SPOT intensity [8] | SPOT intensity [9] | SPOT intensity [10] | SPOT intensity [11] | SPOT intensity [12] | SPOT intensity [13] | SPOT intensity [14] | SPOT intensity [15] | SPOT intensity [16] | SPOT intensity [17] | SPOT intensity [18] | SPOT intensity [19] | SPOT intensity [20] | other results |
| --- | --- | --- | --- | --- | --- | --- | --- | --- | --- | --- | --- | --- | --- | --- | --- | --- | --- | --- | --- | --- | --- |
| B1 | 99 | 0 | 0 | 8 | 0 | 0 | 1 | 0 | 0 | 0 | 2 | 0 | 0 | 307 | 0 | 44 | 21 | 67 | 51 | 77 | SPOT intensity [21]: 57; SPOT intensity [22]: 35; SPOT intensity [23]: 54; SPOT intensity [24]: 2; SPOT intensity [25]: 25; SPOT intensity [26]: 7; SPOT intensity [27]: 0 |
| B2 | 32 | 0 | 0 | 5 | 0 | 0 | 0 | 1 | 0 | 0 | 0 | 0 | 0 | 0 | 0 | 1 | 14 | 39 | 32 | 74 | SPOT intensity [21]: 3; SPOT intensity [22]: 219; SPOT intensity [23]: 125; SPOT intensity [24]: 0; SPOT intensity [25]: 46; SPOT intensity [26]: 7; SPOT intensity [27]: 0 |
| B3 | 81 | 90 | 1 | 65 | 0 | 0 | 0 | 0 | 28 | 0 | 0 | 0 | 1 | 0 | 1 | 211 | 60 | 115 | 44 | 103 | SPOT intensity [21]: 989; SPOT intensity [22]: 73; SPOT intensity [23]: 61; SPOT intensity [24]: 10; SPOT intensity [25]: 21; SPOT intensity [26]: 19; SPOT intensity [27]: 42 |
| B4 | 87 | 0 | 5 | 6 | 0 | 0 | 13 | 0 | 0 | 37 | 0 | 0 | 1 | 2 | 5 | 387 | 25 | 87 | 40 | 65 | SPOT intensity [21]: 9; SPOT intensity [22]: 47; SPOT intensity [23]: 40; SPOT intensity [24]: 0; SPOT intensity [25]: 39; SPOT intensity [26]: 6; SPOT intensity [27]: 0 |
